Source: the Immune Epitope Database (IEDB)

Key:
HLA-A*80:01 = assay: IEDB peptide-MHC binding, purified MHC/direct/fluorescence; filed as Kd, often an IC50 or EC50 that approximates it; ≥ and ≤ were set here for values at or beyond the usual limits of such assays; settings: source organism: Yellow fever virus
HLA-C*03:03 = assay: as above; settings: source organism: Mycobacterium tuberculosis variant bovis BCG str. Pasteur 1173P2
HLA-C*07:02 = assay: as above; settings: source organism: Escherichia coli O157:H7 str. EDL933
HLA-C*14:02 = assay: as above; settings: source organism: Escherichia coli O157:H7 str. EDL933
HLA-C*15:02 = assay: as above; settings: source organism: Escherichia coli O157:H7 str. EDL933
HLA-A*02:01 = assay: IEDB peptide-MHC binding, purified MHC/competitive/fluorescence; filed as Kd, often an IC50 or EC50 that approximates it; ≥ and ≤ were set here for values at or beyond the usual limits of such assays; settings: source organism: Escherichia coli O157:H7 str. EDL933
HLA-A*03:19 = assay: as above; settings: source organism: Escherichia coli O157:H7 str. EDL933
HLA-A*31:01 = assay: as above; settings: source organism: Escherichia coli O157:H7 str. EDL933
HLA-A*32:07 = assay: as above; settings: source organism: Escherichia coli O157:H7 str. EDL933
HLA-B*15:42 = assay: as above; settings: source organism: Escherichia coli O157:H7 str. EDL933
HLA-B*27:20 = assay: as above; settings: source organism: Escherichia coli O157:H7 str. EDL933
HLA-B*39:01 = assay: as above; settings: source organism: Escherichia coli O157:H7 str. EDL933
HLA-B*40:13 = assay: as above; settings: source organism: Escherichia coli O157:H7 str. EDL933
HLA-B*45:06 = assay: as above; settings: source organism: Escherichia coli O157:H7 str. EDL933
HLA-B*58:01 = assay: as above; settings: source organism: Escherichia coli O157:H7 str. EDL933
HLA-B*83:01 = assay: as above; settings: source organism: Escherichia coli O157:H7 str. EDL933
HLA-C*06:02 = assay: as above; settings: source organism: Escherichia coli O157:H7 str. EDL933
HLA-C*04:01 = assay: IEDB peptide-MHC binding, purified MHC/direct/fluorescence; filed as Kd, often an IC50 or EC50 that approximates it; ≥ and ≤ were set here for values at or beyond the usual limits of such assays
HLA-C*05:01 = assay: as above; settings: source organism: Vaccinia virus
HLA-A*24:03 = assay: as above; settings: source organism: Bacillus anthracis

NRDGDSYYY
Kd (HLA-A*80:01): 0.478 µM

RLDPRLAPV
Kd (HLA-C*03:03): ≥ 20 µM

RMMGVKYLM
Kd (HLA-C*07:02): 0.859 µM | Kd (HLA-C*14:02): 2.34 µM | Kd (HLA-C*15:02): 2.08 µM | Kd (HLA-A*02:01): 0.002 µM | Kd (HLA-A*03:19): 0.887 µM | Kd (HLA-A*31:01): 0.0021 µM | Kd (HLA-A*32:07): 0.0011 µM | Kd (HLA-B*15:42): ≥ 5 µM | Kd (HLA-B*27:20): 0.034 µM | Kd (HLA-B*39:01): 2.19 µM | Kd (HLA-B*40:13): 0.0032 µM | Kd (HLA-B*45:06): ≥ 5 µM | Kd (HLA-B*58:01): 0.0168 µM | Kd (HLA-B*83:01): ≥ 5 µM | Kd (HLA-C*06:02): 0.798 µM

FVDVIIIKV
Kd (HLA-C*04:01; source organism: Vaccinia virus): ≥ 20 µM | Kd (HLA-C*05:01): ≥ 20 µM

AYPKWKFFL
Kd (HLA-A*24:03): 0.0017 µM | Kd (HLA-C*04:01; source organism: Bacillus anthracis str. CDC 684): ≥ 20 µM
